Laboratory results: patent publication US20250026849A1 (ARCELLX, published 2025)
Residue numbers refer to the chain shown, from its start.

T1: BCMA (Homo sapiens (Human), UniProt Q02223 1-54, limits assumed)
T1 sequence: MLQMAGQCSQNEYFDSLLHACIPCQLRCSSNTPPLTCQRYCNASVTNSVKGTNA

B1: D-domain SEQ ID NO: 331 (designed binder)
chain: MGSWTNFKEGLAEIKRDLEALGGSEAELARFEYVIAVFEFRLQNYKGKGNPEVEALRKEAAAIRDELQAYRHN
B2: D-domain SEQ ID NO: 339 (designed binder)
chain: MGSWYGFKWYLATIKKHLEALGGSEAELALFETEIATFELWLQDYKGKGNPEVEALRKEAAAIRDELQAYRHN
B3: D-domain SEQ ID NO: 338 (designed binder)
chain: MGSWTTLKWRLAHIKQHLEALGGSEAELALFEYDIAHFEELLQYYKGKGNPEVEALRKEAAAIRDELQAYRHN
B4: D-domain SEQ ID NO: 66 (designed binder)
chain: MGSWIEFQERLDAIFYRLHALGGSEAELAAFEKEIAAFESELQAYKGKGNPEVEDLRDAAATIRRQLQAYRHN
B5: D-domain SEQ ID NO: 68 (designed binder)
chain: B4 chain with I5Y, E9S, H19F, D55K, D58E, T62S, R65T
B6: D-domain SEQ ID NO: 67 (designed binder)
chain: B4 chain with E9Q, H19Y, D55N, A59M, T62I, R65K
B7: D-domain SEQ ID NO: 336 (designed binder)
chain: MGSWYLFQSHLAHIKHHLEALGGSEAELAWFEFTIAGFEQELQHYKGKGNPEVEALRKEAAAIRDELQAYRHN
B8: D-domain SEQ ID NO: 74 (designed binder)
chain: MGSWFEFQHRLEAISMRLHALGGSEAELAAFEKEIAAFESELQAYKGKGNPEVEELRWQAAYIRVVLQAYRHN
B9: D-domain SEQ ID NO: 105 (designed binder)
chain: B8 chain with F5I, Q8S, S15V, M16D, H19G, W58N, Q59T, Y62I, V66Y
B10: D-domain SEQ ID NO: 75 (designed binder)
chain: B8 chain with F5V, H9S, S15A, M16T, H19R, Y62W, V65M, V66M
B11: D-domain SEQ ID NO: 77 (designed binder)
chain: B8 chain with F5Y, H9V, E12Q, M16W, H19K, P51H, W58I, Y62L, V66M
B12: D-domain SEQ ID NO: 76 (designed binder)
chain: B8 chain with F5E, H9Y, E12G, S15A, M16A, H19Q, Y62M, V65F, V66M
B13: D-domain SEQ ID NO: 335 (designed binder)
chain: MGSWIIFKGYLAHIKHHLEALGGSEAELADFEFYIAIFEMELQKYKGKGNPEVEALRKEAAAIRDELQAYRHN
B14: D-domain SEQ ID NO: 102 (designed binder)
chain: MGSWVEFYDRLAAIRKRLYALGGSEAELAAFEKEIAAFESELQAYKGKGNPEVEELRFRAALIRIWLQAYRHN
B15: D-domain SEQ ID NO: 108 (designed binder)
chain: B14 chain with V5S, Y8Q, D9Q, A12H, K16T, R59E, L62I, I65V, W66M
B16: D-domain SEQ ID NO: 109 (designed binder)
chain: MGSWYEFQNRLGAINRRLNALGGSEAELAAFEKEIAAFESELQAYKGKGNPEVEELRFEAAIIRVMLQAYRHN
B17: D-domain SEQ ID NO: 110 (designed binder)
chain: B14 chain with V5Q, Y8T, D9G, A12H, K16H, Y19E, R59E, L62Y, I65V
B18: D-domain SEQ ID NO: 333 (designed binder)
chain: MGSWQFFKEHLASIKFWLEALGGSEAELAFFEDAIADFEYHLQNYKGKGNPEVEALRKEAAAIRDELQAYRHN
B19: D-domain SEQ ID NO: 334 (designed binder)
chain: B18 chain with Q5T, F6Y, D37E, Y40K, H41D, N44Y
B20: D-domain SEQ ID NO: 330 (designed binder)
chain: MGSWTDFKTSLADIKAELEALGGSEAELAKFEYYIAIFEYRLQEYKGKGNPEVEALRKEAAAIRDELQAYRHN
B21: D-domain SEQ ID NO: 332 (designed binder)
chain: B1 chain with T5H, N6T, E9D, R16S, D17E, R30M, V37I, F40Y
B22: D-domain SEQ ID NO: 337 (designed binder)
chain: MGSWYSFKWTLARIKLELEALGGSEAELAYFENVIAHFEMELQSYKGKGNPEVEALRKEAAAIRDELQAYRHN
B23: D-domain SEQ ID NO: 106 (designed binder)
chain: B16 chain with Y5E, Q8S, N9D, G12E, N15L, N19D, E55D, E59A, M66Q
B24: D-domain SEQ ID NO: 107 (designed binder)
chain: B4 chain with I5M, Q8S, E9H, F15H, Y16E, H19Y, D58F, T62I, R65V
B25: D-domain SEQ ID NO: 328 (designed binder)
chain: MGSWQSFKHALADIKINLEALGGSEAELAQFEYAIAVFEYRLQAYKGKGNPEVEALRKEAAAIRDELQAYRHN
B26: D-domain SEQ ID NO: 329 (designed binder)
chain: B25 chain with Q5H, S6T, H9E, D13Q, I16G, N17E, Q30S, A44M
B27: D-domain SEQ ID NO: 49 (designed binder)
chain: MGSWTEFAWRLQAIHQRLQALGGSEAELAAFEKEIAAFESELQAYKGKGNPEVEELRVYAAKIRISLQAYRHN
B28: D-domain SEQ ID NO: 98 (designed binder)
chain: B27 chain with T5S, A8R, W9G, Q16S, Q19N, V58Y, Y59S, K62I, S66Y
B29: D-domain SEQ ID NO: 62 (designed binder)
chain: B27 chain with Q12I, H15D, Q19M, E55I, V58E, Y59L, K62E, I65F, S66H
B30: D-domain SEQ ID NO: 60 (designed binder)
chain: B27 chain with T5S, Q12E, Q19S, E55S, V58L, Y59F, K62Q, I65E, S66N
B31: D-domain SEQ ID NO: 50 (designed binder)
chain: B27 chain with T5I, Q19D, E55D, V58E, K62N, I65D
B32: D-domain SEQ ID NO: 46 (designed binder)
chain: B27 chain with T5R, Q12V, H15N, Q16S, Q19K, V58H, K62S, I65D, S66G
B33: D-domain SEQ ID NO: 54 (designed binder)
chain: B27 chain with T5V, A8S, Q12E, H15R, E55S, V58S, K62R, I65Q, S66E
B34: D-domain SEQ ID NO: 45 (designed binder)
chain: B27 chain with T5H, A8T, Q12I, H15Q, Q19E, V58A, K62G, I65H, S66H
B35: D-domain SEQ ID NO: 51 (designed binder)
chain: B27 chain with T5H, A8T, Q12V, H15Q, V58K, Y59F, I65Y, S66E
B36: D-domain SEQ ID NO: 44 (designed binder)
chain: B27 chain with T5Y, A8S, Q19N, V58A, K62G, I65G, S66A
B37: D-domain SEQ ID NO: 58 (designed binder)
chain: B27 chain with T5V, Q12T, Q16T, Q19W, E55S, V58K, I65K, S66Q
B38: D-domain SEQ ID NO: 48 (designed binder)
chain: B27 chain with T5N, Q12T, H15E, Q19M, V58H, K62G, I65D, S66N
B39: D-domain SEQ ID NO: 56 (designed binder)
chain: B27 chain with T5V, Q12T, H15D, Q19S, E55N, V58F, I65S, S66H
B40: D-domain SEQ ID NO: 55 (designed binder)
chain: MGSWVEFSWRLEAIRQRLTALGGSEAELAAFEKEIAAFESELQAYKGKGNPEVEDLRKYAARIRGELQAYRHN
B41: D-domain SEQ ID NO: 59 (designed binder)
chain: B27 chain with Q12E, H15N, N50K, E55A, V58A, I65T, S66R
B42: D-domain SEQ ID NO: 47 (designed binder)
chain: B27 chain with T5H, H15N, Q19N, V58H, K62H, I65N, S66G
B43: D-domain SEQ ID NO: 57 (designed binder)
chain: B27 chain with T5V, Q12E, H15K, Q19T, V58L, I65R, S66V
B44: D-domain SEQ ID NO: 52 (designed binder)
chain: MGSWHEFTWRLIAIRERLFALGGSEAELAAFEKEIAAFESELQAYKGKGNPEVEELREYAASIRNMLQAYRHN
B45: D-domain SEQ ID NO: 61 (designed binder)
chain: MGSWNEFAWRLIAINQRLWALGGSEAELAAFEKEIAAFESELQAYKGKGNPEVESLRHFAANIRNDLQAYRHN
B46: D-domain SEQ ID NO: 53 (designed binder)
chain: B40 chain with V5I, T19Q, D55S, K58S, G65Q
B47: D-domain SEQ ID NO: 70 (designed binder)
chain: MGSWSEFYDRLYAINQRLFALGGSEAELAAFEKEIAAFESELQAYKGKGNPEVEDLRWYAAFIRAQLQAYRHN
B48: D-domain SEQ ID NO: 71 (designed binder)
chain: B47 chain with S5Y, Y12D, N15V, Q16H, F19D, D55N, F62M, A65V, Q66R
B49: D-domain SEQ ID NO: 63 (designed binder)
chain: MGSWSEFMNRLDAITYRLVALGGSEAELAAFEKEIAAFESELQAYKGKGNPEVELLRHYAAQIRDSLQAYRHN
B50: D-domain SEQ ID NO: 69 (designed binder)
chain: B47 chain with Y8I, Y12D, N15T, Q16Y, D55N, A61G, F62V, A65E
B51: D-domain SEQ ID NO: 64 (designed binder)
chain: B49 chain with S5T, N9E, T15S, V19W, L55V, H58D, Q62I, D65N
B52: D-domain SEQ ID NO: 65 (designed binder)
chain: B49 chain with S5A, N9D, V19W, L55E, H58G, Q62I, D65S, S66E

molecular target: T1, BCMA; assay: ELISA, format not described; parameters: unit not given here

ELISA_avg | Binder
12.3 | B1
10.7 | B2
17.8 | B3
18.6 | B4
14.1 | B5
20 | B6
7.69 | B7
4.05 | B8
18.7 | B9
18 | B10
14.2 | B11
3.11 | B12
5.18 | B13
9.76 | B14
11.6 | B15
4.68 | B16
3.31 | B17
10.6 | B18
6.6 | B19
18.8 | B20
10.7 | B21
4.05 | B22
9.08 | B23
6.3 | B24
13.7 | B25
6.76 | B26

ELISA_avg | Binder
18.7 | B27
7.58 | B28
8.55 | B29
18 | B30
19 | B31
9.66 | B32
19.1 | B33
17.1 | B34
19.5 | B35
9.49 | B36
6.08 | B37
18.3 | B38
8.43 | B39
21.3 | B40
15.1 | B41
13.1 | B42
8.9 | B43
13 | B44
11.5 | B45
9.92 | B46
5.98 | B47
14.7 | B48
12.9 | B49
10.2 | B50
9.87 | B51
10.8 | B52
